What was measured:
[1] = target: T1, VPAC-1 receptors (Homo sapiens, UniProt P32241); assay: Receptor targeting: competition with VIP (10-28) antagonist, MTT assay in HT29 cells; format: cell-based; settings: 24 h
T1 construct: endogenous in cells; host or cells: HT29 colon carcinoma cells
T1 sequence (P32241 31-457): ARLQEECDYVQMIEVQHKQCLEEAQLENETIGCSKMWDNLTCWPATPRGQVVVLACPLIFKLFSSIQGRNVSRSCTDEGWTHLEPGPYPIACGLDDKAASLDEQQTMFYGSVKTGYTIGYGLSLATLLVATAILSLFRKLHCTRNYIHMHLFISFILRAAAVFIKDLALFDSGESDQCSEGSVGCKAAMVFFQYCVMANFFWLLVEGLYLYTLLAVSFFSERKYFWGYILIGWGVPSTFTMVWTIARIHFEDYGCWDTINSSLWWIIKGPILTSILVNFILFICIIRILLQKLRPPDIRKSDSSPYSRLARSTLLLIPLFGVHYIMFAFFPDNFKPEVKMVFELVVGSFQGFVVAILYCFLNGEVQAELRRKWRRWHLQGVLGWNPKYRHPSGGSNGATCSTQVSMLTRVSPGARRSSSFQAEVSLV
Protocol: To further confirm the receptor mediated targeting of the protein, HT29 cells were pre-incubated with varying concentrations of VIP antagonist, VIP (10-28) peptide [Gozes I., et al., Cell Mol. Neurobiol., 1995, 15, 675] for 30 minutes followed by treatment with 10 μM of fusion protein. […] Similar, observation was made when the cells were treated with 5 μM of fusion protein, although this time the receptors were saturated by 25 μM concentration of the antagonist (FIG. 14b).
Cells were seeded in 96-well microplates, followed by the addition of various concentrations of the VIP antagonist VIP (10-28) Fragment for 30 minutes, followed by the addition of fusion protein at a fixed concentration. VIP (10-28) Fragment was allowed to remain in culture wells for whole of the experiment. After a 24-hour incubation, the MTT assay was performed as above.

[2] = target: T2, VPAC 1 receptors expressed on A549 cells (Homo sapiens, UniProt P32241); assay: Immunocytochemical staining for cell surface receptors on A549 cells; format: binding; settings: A549 cells pre-treated, then anti-VPAC-1 immunostaining
T2 construct: the receptors were overexpressed in the A549 cell line; endogenous in cells; host or cells: A549 human lung carcinoma cells (acetone-fixed on slides)
T2 sequence (P32241 31-457): T1 sequence (P32241 31-457)
Protocol: Similarly, when, the cells were treated with fusion protein and immuno-stained with anti-BID. […] A similar observation was made when A549 cells were pre-treated with VIP antagonist, VIP (10-28) followed by fusion protein and immunostaining with anti-BID (FIG. 15e).
Cultured (A549 human lung carcinoma) cells were detached with trypsin/EDTA and pelleted by low-speed centrifugation. The cells were resuspended in PBS. Cell suspensions were coated onto poly-L-lysine coated glass slides, dried and then fixed for 10 min in acetone at −20° C. After drying for 2 h, slides were rinsed in PBS and then treated for 5 min with water/H2O2 in order to block endogenous peroxidase. Slides were again rinsed again in PBS and treated with normal rabbit and goat serum to block background staining. Slides were then incubated with antagonist, VIP(10-28) and/or fusion protein for 1 hr each. Slides were again washed with PBS and incubated with rabbit-anti-BID antibody (dilution 1:1000) or goat anti-VPAC 1 antibody (dilution 1:1000) for 1 h. Slides were again washed in PBS and incubated with […] IgG peroxidase labelled antibodies for anti-BID and anti-VPAC 1 primary antibodies respectively, for 1 h followed by addition of the 3,3′-diaminobenzidine-tetrachloride (DAB) substrate and hydrogen peroxide in PBS. […]

Substance: VIP (10-28) peptide: VIP antagonist, VIP (10-28) peptide (YTRLRKQMAVKKYLNSILN)
- concentration of antagonist giving complete loss of cytotoxicity of fusion protein ([1]; HT29 pre-incubated 30 minutes with antagonist, then 10 μM of fusion protein): 100 µM
- concentration of antagonist at which the receptors were saturated (loss of cytotoxicity) ([1]; HT29 pre-incubated with antagonist, then 5 μM of fusion protein): 25 µM
- availability of VPAC-1 receptors to anti VPAC-1 after pre-treatment [2]: significant loss in the immunostained cell population
